The source of these data is article PMC7870927, “Mechanism of the small ATP-independent chaperone Spy is substrate specific” (Nature Communications, 2021).

Experiment [1] deals with Im7 (native) (Escherichia coli) (UniProt Q03708). Particulars: cited from earlier work.
Experiment [2] deals with Fyn SH3 (native) SH3 (UniProt P06241). Particulars: cited from earlier work.
In experiment [3] the target is Im7 (intermediate and unfolded states) (Escherichia coli) (UniProt Q03708). The conditions noted are these: cited from earlier work.
Chain of Im7 (intermediate and unfolded states) (Escherichia coli) (Q03708 whole entry): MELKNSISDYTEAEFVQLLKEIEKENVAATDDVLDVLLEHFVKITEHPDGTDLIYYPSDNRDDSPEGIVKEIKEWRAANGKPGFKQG
The target in experiment [4] is Fyn SH3 (unfolded) SH3 (UniProt P06241). The conditions noted are these: cited from earlier work.
Chain of Fyn SH3 (unfolded) SH3 (P06241 82-143): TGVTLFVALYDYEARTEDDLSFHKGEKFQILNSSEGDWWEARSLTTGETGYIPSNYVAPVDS
For experiment [5], the target named is T1, apoflavodoxin from Anabaena PCC 7119, wild type (Anabaena PCC 7119, UniProt P0A3E0 3-170).
T1 chain: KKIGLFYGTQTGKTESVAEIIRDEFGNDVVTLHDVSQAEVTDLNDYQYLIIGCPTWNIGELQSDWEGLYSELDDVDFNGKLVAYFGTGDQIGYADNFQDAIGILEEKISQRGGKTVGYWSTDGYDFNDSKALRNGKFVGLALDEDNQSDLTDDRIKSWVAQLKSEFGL
Description: initial fluorescence from kinetic fits.

Experiment [6] deals with T2, apoflavodoxin from Anabaena PCC 7119, F98N mutant (Anabaena PCC 7119, UniProt P0A3E0 3-170, F98N).
T2 construct: also called AnFld F98N; I^T mimic; source: E. coli BL21 (DE3), purified (same protocol as AnFld WT); not shown: His6, N-terminal, cleaved; SUMO, N-terminal, cleaved
T2 sequence: T1 chain with F97N
Description: ITC; 550 µM Spy dimer in the syringe, 50 µM AnFld F98N in the cell; 40 mM HEPES-KOH pH 7.5, 100 mM NaCl; 10 °C; one-site binding model. Particulars: both partners purified.

Experiment [7] deals with T3, apoflavodoxin from Anabaena PCC 7119, L105A I109A double mutant (Anabaena PCC 7119, UniProt P0A3E0 3-170, L105A | I109A).
T3 construct: flavodoxin (apo form) from Anabaena PCC 7119 with the two destabilising mutations L105A and I109A; also called AnFld 2A; AnFld2A; source: E. coli BL21 (DE3), purified (same protocol as AnFld WT); not shown: His6, N-terminal, cleaved; SUMO, N-terminal, cleaved
T3 sequence: T1 chain with L104A, I108A
Briefly: ITC + other: kinetic unfolding experiments; ITC: 1.2 mM Spy dimer in the syringe, 100 µM AnFld 2A in the cell; 40 mM HEPES-KOH pH 7.5, 100 mM NaCl; one-site or two-site models; two binding-competent conformations of AnFld 2A. Particulars: both partners purified.

For experiment [8], the target named is T1, apoflavodoxin from Anabaena PCC 7119, …. Description: ITC; 10 °C.
Experiment [9] concerns the target T4, apoflavodoxin from Anabaena PCC 7119, L105A I109A double mutant (Anabaena PCC 7119, UniProt P0A3E0 3-170, L105A | I109A).
T4 sequence: T1 chain with L104A, I108A
Briefly: ITC; second site (K2).

For experiment [10], the target named is T3, apoflavodoxin from Anabaena PCC 7119, …. Description: other fluorescence titration; equilibrium titration of Spy dimer into 17.2 µM native AnFld WT (square hyperbola, one-site) or 10 µM AnFld 2A (quadratic tight-binding model) in HN buffer, 25 °C; intrinsic tryptophan fluorescence at 340 nm; apparent. The conditions noted are these: both partners purified.

For experiment [11], the target named is T5, apoflavodoxin from Anabaena PCC 7119, wild type (Anabaena PCC 7119, UniProt P0A3E0 3-170).
T5 construct: flavodoxin (apo form, without FMN) from Anabaena PCC 7119; gene codon-optimised, synthesised by GenScript; The same protein was used native and urea-denatured (5 M urea, then diluted: state U*); the assays tell the two apart; [U-2H,15N,13C]-labelled for the NMR titration; also called AnFld; AnFld WT; source: E. coli BL21 (DE3), purified (Ni-His Trap, ULP1 cleavage, HiTrap Q, Superdex 75; …)
T5 sequence: T1 chain
The description is as above. Particulars: both partners purified.

Experiment [12] concerns the target T5, apoflavodoxin from Anabaena PCC 7119, …. Description: other fluorescence titration; stopped-flow refolding: AnFld denatured in 5 M urea diluted 11.5-fold (0.09 µM final) into HN buffer (40 mM HEPES-KOH pH 7.5, 100 mM NaCl) with Spy dimer, 25 °C; normalised initial tryptophan fluorescence against Spy dimer concentration, one-site binding model; non-native state U* of AnFld. Particulars: both partners purified.

Experiment [13] has the same target. Briefly: AUC; sedimentation velocity of Spy with AnFld or AzoFld, 48,000 r.p.m., absorbance at 280 nm; 2DSA, genetic algorithm, Monte Carlo. The conditions noted are these: both partners purified.
For experiment [14], the target named is T6, apoflavodoxin from Azotobacter vinelandii, C69A (Azotobacter vinelandii, UniProt P00324 1-180, C69A).
T6 construct: flavodoxin (apo form) from Azotobacter vinelandii with C69A; The only AzoFld gene that the methods name is C69A; also called AzoFld; AzoFld C69A; source: E. coli BL21 (DE3), purified (same protocol as AnFld WT); not shown: His6, N-terminal, cleaved; SUMO, N-terminal, cleaved
T6 sequence (P00324 whole entry C70A): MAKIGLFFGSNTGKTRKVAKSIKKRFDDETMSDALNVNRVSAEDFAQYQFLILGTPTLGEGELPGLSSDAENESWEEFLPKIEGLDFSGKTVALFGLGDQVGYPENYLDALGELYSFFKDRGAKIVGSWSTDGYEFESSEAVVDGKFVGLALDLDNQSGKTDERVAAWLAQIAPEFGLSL
Described as above. Particulars: both partners purified.

Experiment [15] has as its target T7, apoflavodoxin from Anabaena PCC 7119, F98N mutant (Anabaena PCC 7119, UniProt P0A3E0 3-170, F98N).
T7 sequence: T1 chain with F97N
Briefly: ITC; 10 °C.

Experiment [16] deals with T5, apoflavodoxin from Anabaena PCC 7119, …. Description: ITC; 550 µM Spy dimer in the syringe, 50 µM AnFld WT in the cell; 40 mM HEPES-KOH pH 7.5, 100 mM NaCl; MicroCal iTC200; temperature not shown. The conditions noted are these: both partners purified.
Experiment [17] concerns the target T4, apoflavodoxin from Anabaena PCC 7119, …. Description: ITC; first site (K1).

Numbering of substitutions follows the chain as printed. “And” between values parts separate entries of the source, which are not always exact repeats. Identical values can stand only once.

Chain of Im7 (native) (Escherichia coli) (Q03708 whole entry): as the sequence (Q03708 whole entry) above
Chain of Fyn SH3 (native) SH3 (P06241 82-143): as the sequence (P06241 82-143) above

On to Spy (from UniProt P77754), for which the Kd in [1] was 20.5 µM; in experiment [2], 50 µM; in experiment [3], 4.7 µM; in [4], 2.9 µM.

B1: Spy (small bacterial ATP-independent chaperone) (natural protein, UniProt P77754 24-161, looked up)
chain: ADTTTAAPADAKPMMHHKGKFGPHQDMMFKDLNLTDAQKQQIREIMKGQRDQMKRPPLEERRAMHDIIASDTFDKVKAEAQIAKMEEQRKANMLAHMETQNKIYNILTPEQKKQFNANFEKRLTERPAAKGKMPATAE
notes: chaperone Spy; Used and counted as a dimer throughout ('Spy dimer'); also called Spy dimer; SpyD; source: E. coli BL21 (DE3), purified (Ni-His Trap, ULP1 cleavage, HiTrap Q, HiLoad Superdex 75); not shown: His6, N-terminal, cleaved; SUMO, N-terminal, cleaved
For the molecule B1, the Kd in experiment [5] was 17.7 µM; in [6], 1.8 µM; in [10] it was 0.1 µM; in [11], 40 µM; in [12], 0.35 µM; in experiment [16] it was 28.2 µM. In addition, in [7], the “KD of one of two binding-competent conformations of AnFld 2A” value was 0.23 µM and 0.38 µM. For the same molecule, the Ka came to 35500 M⁻¹ in [8], 4.37e+06 M⁻¹ in experiment [9], 801000 M⁻¹ in [15] and 2.65e+06 M⁻¹ in [17]. Besides, the entries for the “stoichiometry N” value in [13] and in experiment [14] were 1 AnFld per Spy dimer and 1 AzoFld per Spy dimer, respectively.
